± gives the uncertainty stated by the source.
Test: amyloid nucleation score (Sup35N fusion, yeast selection) (log enrichment); library NNK1; higher = more nucleation; inactive = no reads after selection
How it was run: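 Psi-negative yeast expressed Sup35N fused to peptides of 20 random codons. They were induced 24 hours with 100 μM copper sulfate, grown 7 days at 30°C without adenine and uracil, and their plasmid inserts from input and output were Illumina-sequenced. The nucleation score is the DiMSum log enrichment of output over input reads, centred on the mode score of non-aggregating sequences. Sequences with under 100 input reads were excluded.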

| Substance | amyloid nucleation score |
| --- | --- |
| VLNYHLH | -0.569 ± 0.79 |
| KWVKEALIA | -0.463 ± 0.73 |
| SVVFGSSYRNAVGCWTWSQG | 0.6 ± 0.4 |
| YIMSGRFTNY | 2.13 ± 0.28 |
| SLLRARIKVVPV | -1.46 ± 1.6 |
| LRSVSGCIKFAYGDSCMSLK | inactive |
| CFDNSFTFPPDG | 0.066 ± 0.3 |
| ESHSSTKGSEWLRHSHSDGV | 0.632 ± 0.39 |
| VGWASQKINYWLETSGF | 0.329 ± 0.68 |
| FLIIIRPISRRTCRVCFKQT | -0.246 ± 0.44 |
| SVFSLVYGKN | 0.685 ± 0.81 |
| VSFTSIHMVIEDLRIKLNPA | -0.426 ± 0.71 |
| NPSNKCLSEPWQDHLLGAWR | 0.758 ± 0.67 |
| YNNLIPTYHHWGSFHMV | 1.32 ± 0.68 |
| FGRSVLDRVKVMHVRVVVSV | -0.372 ± 0.63 |
| VTHGHVGTVGSWVVRTTAFM | -0.937 ± 2.1 |
| IESMVYITPCIEGIRWNWEK | 0.122 ± 0.36 |
| RMDSGIGDRSTGGDRTNGMW | -0.546 ± 0.53 |
| FKSTPVFKQWRNGGTDGLTG | -0.958 ± 1.5 |
| QGMQICHQKHGAWSGYNGRE | -0.379 ± 0.29 |
| CDLFSRACGSAMDTYNKSHI | -1.01 ± 0.9 |
| HPLVGQELKDWNNELYVHVL | 0.534 ± 0.79 |
| TLLELLCEWNTVHKGSP | 0.699 ± 0.3 |
| RPCNEGFWLHNHGRSNSSSS | -0.462 ± 0.52 |
| LVLHNVDELYINSSHF | 0.77 ± 0.5 |

| Substance | amyloid nucleation score |
| --- | --- |
| TYPYYVTVGGIS | 0.113 ± 0.43 |
| VMYLSGCHLRLKCYLGSFNR | 5.51 ± 0.076 |
| RYGGRCNTR | 0.016 ± 1.7 |
| CCVNVPIFRRKFGTCSCKAW | 0.065 ± 0.93 |
| DIRCGLDGNWVSSFVRQQGS | inactive |
| VVVEKLAQLNHVKAEPMVSG | 0.335 ± 0.57 |
| YMLGREMS | inactive |
| GYNGCYNIFVHRSDKMAALR | 0.515 ± 0.59 |
| SYVYHPTSRLVWIIRMIT | 0.5 ± 0.38 |
| SRVQYLILDIMVTRYGASTS | -0.262 ± 0.53 |
| HIVVFKYVCYSHEAVYWRPE | 0.305 ± 1.2 |
| SKYLCNMLPISDLHMGQTFN | -0.391 ± 0.44 |
| CHMKYFREVVATV | 0.186 ± 1.1 |
| MFRRFSWGR | -0.198 ± 0.44 |
| SCPTMYSYVFWVRFQSGTAS | 1.72 ± 0.13 |
| GNCPNQIGAYVVKIIRMPAL | -0.311 ± 0.55 |
| ANDFYVMYAEWKDCRNRVLF | 0.655 ± 0.66 |
| HMSGFWM | -0.856 ± 1.7 |
| TLKHEQAREGFFAM | -0.053 ± 0.56 |
| VSCGDELVGDRI | 0.171 ± 0.36 |
| TIATLFIFRDLFNFECLNSH | 4.61 ± 0.1 |
| DLSNNRWWFNRFRALHYKSS | -0.358 ± 0.85 |
| AMYFTWFVHFGAYRVRSIEK | 1.48 ± 0.48 |
| RSDDKVSRSVGDHCTVGVLR | 6.441 ± 0.061 |
| PELYSVDHFNGYAPNYCRCR | -0.534 ± 0.43 |

| Substance | amyloid nucleation score |
| --- | --- |
| SARYLMEFWKVHIKAYIMSF | 0.099 ± 0.79 |
| ISCKWYNHISSRLNFMWHAK | 0.394 ± 0.88 |
| FLYVVARY | 0.19 ± 0.71 |
| HGHENVDWQKITDIGGRENC | -0.715 ± 1.9 |
| DYESSVGRSQDLAY | -0.745 ± 2.4 |
| MLLALVIEADRRRWSVNGMY | 2.93 ± 0.18 |
| MVQAPLTSQPYNNGMVRQK | -0.055 ± 0.5 |
| VSTQIRRDGYDYAAVGHC | 0.009 ± 0.8 |
| FPYILMKRAKQYALGPRHLL | -0.435 ± 0.32 |
| VVMNLLVLIGYLSSLYFLQA | -1.04 ± 1.9 |
| VDVAVVDTNLSLNMACKGWT | 1.21 ± 0.45 |
| EVIIIGRSIIVLGMGGTKFW | 1.72 ± 0.24 |
| TYLFF | inactive |
| TLCQCKLT | -0.286 ± 0.67 |
| KRSTVRHYYRARCFITVAMV | -0.365 ± 0.45 |
| ERLGLRRFTIIISRQAQV | 0.03 ± 0.34 |
| NLTWAGTLY | -0.875 ± 1.5 |
| NVWNVFWLNN | inactive |
| LWVFRCARLKVWQPRKGWGQ | 0.844 ± 0.48 |
| HLHFTILY | 2.55 ± 0.28 |
| LYTLRLGI | -0.134 ± 0.84 |
| TVVNSVGYYAPKLPSACLGN | 0.638 ± 0.31 |
| FKRRLGCLKPRNY | -0.333 ± 0.52 |
| LKARQHFRNHHGMLVQKRWD | inactive |
| IVVYVCIVGNNAPSLDAKSV | 0.923 ± 0.23 |

| Substance | amyloid nucleation score |
| --- | --- |
| SWNRGVLESHKHAYFALPQF | 0.417 ± 0.24 |
| RFRVVNSCSTKPLLNEKLFG | inactive |
| NRYMWDFSIAGVGVRLWINS | -0.896 ± 0.55 |
| IFLIMKNRTSILRPTGFLVS | -0.402 ± 0.49 |
| GLLNTYS | 0.626 ± 1.2 |
| SVSVQERTSGVYSHVSSENY | -0.162 ± 0.45 |
| YKYINSVQIYEHV | 4.19 ± 0.13 |
| LSDRVFSVTTQGPCDSIFLS | -0.792 ± 0.61 |
| QSPISDCSGQSSCRMCQRYG | 0.408 ± 0.2 |
| ISYVSVS | 0.073 ± 0.41 |
| RRDDVCELLVIP | 0.351 ± 0.51 |
| IADPNRFFTLLNLPMQCREA | inactive |
| TSIFCGSLLGAKVDSTPVPV | -1.27 ± 2.4 |
| SVWFWFSKGWFSLCWAFFEK | 0.428 ± 1.2 |
| SSGFYLWCALYRSRGHCNDY | 1.6 ± 0.18 |
| ATCPLYEVLSCYARVKFANT | -0.357 ± 0.33 |
| VLRRLRSWRKVELENNRGKM | inactive |
| MFGAHLA | inactive |
| GVCFLAR | 0.707 ± 0.74 |
| QCRERLYPHPGLI | 1.01 ± 0.37 |
| PNAVNIIYDCAQLLFMRTMR | -0.188 ± 0.65 |
| YRLRQPLPSERSLMEHSCGV | 0.761 ± 0.56 |
| RYNTPNGVYICLNA | -1.03 ± 0.39 |
| FFRTLTWR | 1.11 ± 0.55 |
| VFLIAWGLFSRMC | 4.54 ± 0.11 |

| Substance | amyloid nucleation score |
| --- | --- |
| SLDEVARVLCP | -0.21 ± 0.58 |
| SDELVQSTASGLFYASMGFK | 1.75 ± 0.76 |
| KMRCDGLEQRLRSQSDLLAP | 0.374 ± 0.45 |
| CNRSLWAGPRLHPWTRMYVR | 0.85 ± 0.62 |
| DMNILVLLMGDVVRLATTEW | 2.68 ± 0.17 |
| DWNVQGQWFHQC | 0.677 ± 0.72 |
| FNLRTIARDL | -1.68 ± 0.97 |
| RLVIRSGTNAGMVGRSWGGC | -0.151 ± 0.3 |
| VKQSST | 0.212 ± 0.66 |
| TCIARHLQILSVNRCCVRFA | 0.062 ± 0.44 |
| FLVQNRRISEVIELWALLS | -1.19 ± 2.7 |
| LSKGRATVYF | 2.06 ± 0.23 |
| HMRTNKVFPCYPWPFTYTPP | inactive |
| LWVFS | 0.762 ± 0.7 |
| MGTRILSRTFVVYTTPGYCW | 0.093 ± 0.27 |
| TRVKQMEVVSWTRHHWPRCF | -0.623 ± 0.47 |
| FFRRNHGYNI | 0.092 ± 0.43 |
| SRQRSYRDWVATFTF | -0.339 ± 0.52 |
| KAFRMLGGFNSYRNFNIILK | 3.96 ± 0.079 |
| CPASVMAKRYCQLKMGWWGP | 0.202 ± 0.37 |
| HSTLFGSKFWGKTQHNFDS | -0.151 ± 1.1 |
| LSIILRNVMCNIFSSNLITH | 0.973 ± 0.16 |
| LAVFSNVLLYVEDMSALIRG | 0.129 ± 0.2 |
| CLLRTRFWR | 0.364 ± 0.56 |
| SRNLCSQSWIRTATV | 0.585 ± 0.56 |

| Substance | amyloid nucleation score |
| --- | --- |
| LLRLRISEIGSRLIKVWKSW | 0.155 ± 0.35 |
| WFIPNKGTYREAYFLSCLGS | -0.954 ± 1.3 |
| CWDSNALADGCAWYKVLMDI | 0.229 ± 0.35 |
| VFGVVSFLHDFNFGKAYFAV | 0.191 ± 0.4 |
| PIEHDEWLTVMVYCDGRLLA | -0.894 ± 2.4 |
| AWMGLKNVN | 1.59 ± 0.69 |
| AELSITASTNMESNLVNSIR | -1.69 ± 2.7 |
| GFGMFATTGKVLSMRAFQ | 0.025 ± 0.59 |
| WEGLQLLGS | -0.138 ± 0.91 |
| PIYGFLWELRR | 0.486 ± 0.51 |
| VRCCGPFRACIVLLAITKDG | -0.393 ± 1.4 |
| NPHCVSLKTRIPFVGGSKCG | -0.748 ± 1.2 |
| LGSWRFMLAVI | 0.375 ± 0.48 |
| SSLLFEPATASFILQD | -0.894 ± 0.68 |
| NPCHKMFSRNPHLYMAAVKS | 0.335 ± 0.96 |
| WSGTDRMCSVMTYS | -0.841 ± 0.51 |
| SRTHRDGTCYHSGTVKVHLP | -1.64 ± 2.7 |
| NMYKSMNQSTE | -0.705 ± 0.26 |
| YFLSHRCTGGLPIS | -0.028 ± 0.9 |
| VSGAIRRDYIFDVIGRPTV | inactive |
| LEMDRICMMLSDSRFKLTLV | -0.025 ± 0.21 |
| FIWDAWLGRKVSESHTVFHS | 0.017 ± 0.21 |
| EFPIHQERAPSTTIHPSVSC | 0.765 ± 0.9 |
| GETRVLHDKVGRKFGLCKDF | 0.32 ± 0.41 |
| GAYNWVF | -0.107 ± 0.55 |

| Substance | amyloid nucleation score |
| --- | --- |
| LVAYVTRRFVLCM | -1.42 ± 1.8 |
| VLYMVEACLVWGIRQSESAV | 0.393 ± 0.73 |
| TLWYLLQITYVLKFKW | 0.301 ± 0.4 |
| LFRWEGVATACSCGDDASFA | -0.668 ± 1.1 |
| EPGSLTESKSFYFLSCPTTR | 0.808 ± 0.7 |
| KLMSEFTKFVFSLLSSNKSH | -0.457 ± 0.31 |
| GLGWHFTL | -0.407 ± 0.28 |
| KTLDLHISFPQDKLFR | -0.382 ± 0.45 |
| GDCFFQSYDTVFNFASR | 2.24 ± 0.2 |
| VETSGVILVESWCFMLGIDV | 0.724 ± 0.75 |
| LWWFEYRL | -0.016 ± 0.32 |
| ITWFVYGPLGWMWGFLRPTA | 0.019 ± 0.62 |
| VGELYFIVWMDLLLVGWDGR | 0.897 ± 0.53 |
| RVWCKWH | 0.027 ± 1.4 |
| ASLVDVGSP | 0.215 ± 0.32 |
| AGRMEGYESEGPPGHA | 0.187 ± 0.39 |
| ASEVCKY | 0.375 ± 0.79 |
| LNDGTGDQ | -0.138 ± 0.37 |
| ILSFMYYDTHAPLKFAVQVK | 0.296 ± 0.45 |
| LNHRIYNLLHVILWVKQWMK | 0.164 ± 1.5 |
| SSVILSDCSCFMVHQCWYLC | -2.13 ± 2.7 |
| RYNAILAWCSLRKTGVYFLV | 1.09 ± 1 |
